Measurements reported in patent publication US7211424B1, “Mammalian Subtilisin/kexin isozyme SKI-1: a proprotein convertase with a unique cleavage specificity” (Institut de Recherches Cliniques de Montreal, priority 1999, dated 2007).

Experiments:
[1] = substrate: CC(C)C[C@H](NC(=O)[C@H](CO)NC(=O)[C@H](CCCNC(=N)N)NC(=O)[C@H](Cc1ccccc1)NC(=O)[C@@H](NC(=O)c1ccccc1N)C(C)C)C(=O)N[C@@H](CCCCN)C(=O)N[C@@H](Cc1ccc(O)cc1)C(=O)N[C@@H](C)C(=O)N[C@@H](CCC(=O)O)C(=O)N[C@@H](CO)C(=O)N[C@@H](CC(=O)O)C(=O)N[C@@H](Cc1ccc(O)c([N+](=O)[O-])c1)C(=O)N[C@@H](C)C(N)=O; assay: Hydrolysis of quenched fluorogenic substrates by shed-hSKI-1; type: biochemical, human; conditions: other: shed-hSKI-1; averages of duplicate assays; pH 6.5; 37.0 °C
Experimental: (§1) For digestions, each peptide was typically reacted at 37° C. with 10 μl of the concentrated enzyme preparation in a buffer consisting of 50 mM HEPES (N-2-Hydroxyethyl piperazine-N′-2 EthaneSulfonic acid) (ICN Biomedicals Inc), 50 mM MES (2-[N-Morpholino] EthaneSulfonic acid) (Sigma Chem Co.), and 3 mM Ca^2+-acetate (pH 6.5). The digestion products were separated by RP-HPLC on a Beckman 5 μm Ultrasphere C18 column (0.2×25 cm) and eluted with a 1%/min linear gradient of aqueous 0.1% TFA/CH3CN ([…]) at a flow rate of 1 ml/min. The collected peptides were characterized by mass spectrometry and amino acid composition, which was also used to quantitate the amount of various substrates and products. The digestions of the quenched fluorogenic peptides were analyzed by RP-HPLC using a dual UV (210 nm) and fluorescence (excitation and emission wavelengths of 320 and 420 nm, respectively) detector (Rainin).
(§2) Km(app), Vmax(app) and Ki(app) determinations—Following digestion reactions with increasing substrate concentrations, the products were separated by RP-HPLC. The rate of substrate hydrolysis was obtained from the integrated peak areas of the chromatograms. Km(app) and Vmax(app) values were estimated using nonlinear regression analysis (Enzfitter software; Elsevier Biosoft, Cambridge, UK) of plots of the hydrolysis rate vs the substrate concentration. […] The Ki(app) values were estimated from Dixon plots as described (16). For the two quenched peptides, kinetic parameters were determined as described (17).

[2] = substrate: CC(C)C[C@H](NC(=O)[C@H](CO)NC(=O)[C@H](CCCNC(=N)N)NC(=O)c1ccccc1N)C(=O)N[C@@H](CCCCN)C(=O)N[C@@H](Cc1ccc(O)cc1)C(=O)N[C@@H](C)C(=O)N[C@@H](CCC(=O)O)C(=O)N[C@@H](CO)C(=O)N[C@@H](CC(=O)O)C(=O)N[C@@H](Cc1ccc(O)c([N+](=O)[O-])c1)C(=O)N[C@@H](C)C(N)=O; assay: as above; type: biochemical, human; conditions: other: shed-hSKI-1; averages of duplicate assays; pH 6.5; 37.0 °C
Experimental: as §1, §2

[3] = target: T1, peptide VIII, hSKI-1 (128-136)
T1 chain: PQRKVFRSL

[4] = target: T2, peptide (x) SREBP-2 10 mer
T2 chain: SGSGRSVLSFES

[5] = target: T3, peptide XI, Q-hSKI-1 (134-142): Abz-RSLKYAESD-Y(NO2)-A
T3 chain: XRSLKYAESDXA

[6] = target: T4, peptide VII, hSKI-1 (187-201)
T4 chain: RAIPRQVAQTLQADV

[7] = target: T5, peptide VI, hSKI-1 (156-172)
T5 chain: WQSSRPLRRASLSLGSG

[8] = target: T6, peptide X, Q-hSKI-1 (132-142): Abz-VFRSLKYAESD-Y(NO2)-A
T6 chain: XVFRSLKYAESDXA

[9] = target: T7, peptide (iv) hSKI-1 (181-188+Glu)
T7 chain: SSRRLLRAIE

[10] = target: T8, peptide I, hproBDNF(50-63)
T8 chain: KAGSRGLTSLADTF

[11] = target: T9, peptide IV, hSKI-1 (174-188+LE)
T9 chain: WHATGRHSSRRLLRALE

[12] = target: T10, peptide IX, hSKI-1 (128-142)
T10 chain: PQRKVFRSLKYAESD

[13] = target: T11, peptide II, hSREBP-2(504-530)
T11 chain: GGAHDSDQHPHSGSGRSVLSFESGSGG

[14] = target: T12, peptide III, hSKI-1(174-191)
T12 chain: WHATGRHSSRRLLRAIPR

B1: shed-hSKI-1 (Homo sapiens) (protein)
chain: RAIPRQVAQTLQADVLWQMGYTGANVRVAVFDTGLSEKHPHFKNVKERTNWTNERTLDDGLGHGTFVAGVIASMRECQGFAPDAELHIFRVFTNNQVSYTSWFLDAFNYAILKKIDVLNLSIGGPDFMDHPFVDKVWELTANNVIMVSAIGNDGPLYGTLNNPADQMDVIGVGGIDFEDNIARFSSRGMTTWELPGGYGRMKPDIVTYGAGVRGSGVKGGCRALSGTSVASPVVAGAVTLLVSTVQKRELVNPASMKQALIASARRLPGVNMFEQGHGKLDLLRAYQILNSYKPQASLSPSYIDLTECPYMWPYCSQPIYYGGMPTVVNVTILNGMGVTGRIVDKPDWQPYLPQNGDNIEVAFSYSSVLWPWSGYLAISISVTKKAASWEGIAQGHVMITVASPAETESKNGAEQTSTVKLPIKVKIIPTPPRSKRVLWDQYHNLRYPPGYFPRDNLRMKNDPLDWNGDHIHTNFRDMYQHLRSMGYFVEVLGAPFTCFDASQYGTLLMVDSEEEYFPEEIAKLRRDVDNGLSLVIFSDWYNTSVMRKVKFYDENTRQWWMPDTGGANIPALNELLSVWNMGFSDGLYEGEFTLANHDMYYASGCSIAKFPEDGVVITQTFKDQGLEVLKQETAVVENVPILGLYQIPAEGGGRIVLYGDSNCLDDSHRQKDCFWLLDALLQYTSYGVTPPSLSHSGNRQRPPSGAGSVTPERMEGNHLHRYSKVLEAHLGDPKPRPLPACPRLSWAKPQPLNETAPSNLWKHQKLLSIDLDKVVLPNFRSNRPQVRPLSPGESGAWDIPGGIMPGRYNQEV
notes: SKI-1 is further processed to remove the transmembrane domain that keeps it integrated in the ER membrane, which generates a SKI-1 soluble form; made in house; host or cells: HK293 cells stably transfected with full-length hSKI-1 in pcDNA3; shed enzyme in the medium
For B1, which Km [1] is on record?
The Km was 31.3 µM.

And the Vmax [1]?
The Vmax was 0.567 µmol/min.

What about the Km [2] of the same protein?
The Km was 8.7 µM.

And the Vmax [2]?
The Vmax was 0.948 µmol/min.

What about the “cleavage of synthetic peptide (vi): not efficiently cleaved” value [3] of the same protein?
Its value is “only the peptides (iii), (iv), (vii), (viii) (ix) and (x) are efficiently cleaved by the recombinant SKI-1”.

What about the “cleavage of synthetic peptide (x): efficiently cleaved” value [4] of the same protein?
Its value is “only the peptides (iii), (iv), (vii), (viii) (ix) and (x) are efficiently cleaved by the recombinant SKI-1”.

What about the “cleavage of quenched fluorogenic peptide (HPLC with UV and fluorescence detection)” value [5] of the same protein?
Its value is “clearly revealed a single site of cleavage in peptides (a) and (b)”.

And the “cleavage of synthetic peptide (v): not efficiently cleaved” value [6]?
The value was “only the peptides (iii), (iv), (vii), (viii) (ix) and (x) are efficiently cleaved by the recombinant SKI-1”.

What about the “cleavage of synthetic peptide (i): not efficiently cleaved” value [7] of the same protein?
The value was “only the peptides (iii), (iv), (vii), (viii) (ix) and (x) are efficiently cleaved by the recombinant SKI-1”.

And the “kinetic parameters (Vmax/Km) relative to quenched peptide (b)” value [8]?
The value was “this peptide is 6-fold more efficient that the nearest candidate quenched peptide (b)”.

And the “cleavage of synthetic peptide (iv): efficiently cleaved” value [9]?
Its value is “only the peptides (iii), (iv), (vii), (viii) (ix) and (x) are efficiently cleaved by the recombinant SKI-1”.

And the “cleavage of synthetic peptide (viii): efficiently cleaved” value [10]?
Its value is “only the peptides (iii), (iv), (vii), (viii) (ix) and (x) are efficiently cleaved by the recombinant SKI-1”.

What about the “cleavage of synthetic peptide (iii): efficiently cleaved” value [11] of the same protein?
Its value is “only the peptides (iii), (iv), (vii), (viii) (ix) and (x) are efficiently cleaved by the recombinant SKI-1”.

And the “cleavage of synthetic peptide (vii): efficiently cleaved” value [12]?
The value was “only the peptides (iii), (iv), (vii), (viii) (ix) and (x) are efficiently cleaved by the recombinant SKI-1”.

What about the “cleavage of synthetic peptide (ix): efficiently cleaved” value [13] of the same protein?
Its value is “only the peptides (iii), (iv), (vii), (viii) (ix) and (x) are efficiently cleaved by the recombinant SKI-1”.

And the “cleavage of synthetic peptide (ii): not efficiently cleaved” value [14]?
The value was “only the peptides (iii), (iv), (vii), (viii) (ix) and (x) are efficiently cleaved by the recombinant SKI-1”.
